Measurements published in patent US20230105667A1, “MESENCHYMAL STROMAL CELLS AND EXTRACELLULAR VESICLES FOR TREATING VIRAL INFECTIONS, INFLAMMATION, AND TISSUE FIBROSIS” (EXOSTEM BIOTEC LTD., priority 2020, published 2023).

Biological target: human ACE2 on cells (human lung epithelial cells expressing ACE2 (human) (UniProt Q9BYF1))
Assay: cell-based or functional assay

UniProt Q9BYF1, sequence (Q9BYF1 18-805 limits assumed): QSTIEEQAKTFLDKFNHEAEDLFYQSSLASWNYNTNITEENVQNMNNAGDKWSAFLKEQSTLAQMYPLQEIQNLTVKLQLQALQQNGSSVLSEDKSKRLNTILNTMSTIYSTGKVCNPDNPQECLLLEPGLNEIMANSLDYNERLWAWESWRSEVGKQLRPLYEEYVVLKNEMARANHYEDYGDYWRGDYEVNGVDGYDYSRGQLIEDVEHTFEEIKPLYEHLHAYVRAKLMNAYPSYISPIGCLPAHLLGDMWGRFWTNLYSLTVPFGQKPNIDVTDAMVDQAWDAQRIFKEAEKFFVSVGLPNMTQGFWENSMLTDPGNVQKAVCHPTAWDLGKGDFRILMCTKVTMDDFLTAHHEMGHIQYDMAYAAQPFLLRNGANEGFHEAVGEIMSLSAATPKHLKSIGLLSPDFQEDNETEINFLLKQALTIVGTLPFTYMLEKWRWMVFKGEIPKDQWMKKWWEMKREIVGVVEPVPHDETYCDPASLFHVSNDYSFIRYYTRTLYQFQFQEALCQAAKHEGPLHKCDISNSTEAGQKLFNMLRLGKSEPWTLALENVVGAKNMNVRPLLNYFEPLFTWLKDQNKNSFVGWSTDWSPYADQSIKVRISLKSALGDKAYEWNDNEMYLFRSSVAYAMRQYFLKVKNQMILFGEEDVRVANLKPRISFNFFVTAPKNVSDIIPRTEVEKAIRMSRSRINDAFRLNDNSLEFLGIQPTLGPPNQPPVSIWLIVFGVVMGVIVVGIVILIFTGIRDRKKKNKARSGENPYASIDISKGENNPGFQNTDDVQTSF

Which TNFα levels in HBE cells treated with RBD recombinant protein does the source give for “SARS-CoV-2 receptor-binding-domain (RBD) displayed on extracellular vesicles from MSCs (ligand)” here?
The TNFα levels in HBE cells treated with RBD recombinant protein was 50%.
